In the Human Domainome abundance scans (Beltran et al. 2025):

B1: Homeobox expressed in ES cells 1, residues 110 to 165; numbered along this chain, Q9UBX0 (parent)
chain: RPRTAFTQNQIEVLENVFRVNCYPGIDIREDLAQKLNLEEDRIQIWFQNRRAKLKR

Variants of: B1
Test: abundance fitness (aPCA) (normalised: wild type 0, dead -1); higher = more abundant; growth selection in yeast, the domain comes from the species named
Conditions: Homo sapiens

Abundance fitness: each site, then its substitutions
Q10: P -0.922 | I -0.404 | V -0.279 | G -0.574 | F -0.993 | M 0.017 | R -0.662 | D -0.287 | H -0.594 | E -0.278 | L -0.744
T4: S -0.187 | G 0.129 | P 0.125 | N -0.067 | A -0.164 | M 0.634 | C 0.74 | Y -0.163 | H 0.069 | W -0.501 | E 0.402 | R 0.171 | D -0.192 | Q 0.635 | I -0.007 | K 0.116 | V -0.003 | F 0.052
T7: F -0.701 | P -0.664 | E -0.352 | N -0.084 | V -0.681 | G -0.401 | D 0.161 | K -0.245 | S 0.112 | C -0.666 | L -0.417 | A -0.068 | R -0.587 | H -0.312 | W -0.845 | M -0.288
F6: T -0.859 | K -0.703 | V -0.155 | I -0.075 | A -0.865 | W -0.365 | Y -0.065 | D -0.599 | S -0.791 | Q -0.678 | M 0.123 | C -0.673 | N -0.454 | R -0.688 | G -0.797
A5: P 0.295 | R 0.132 | N 0.391 | E 0.596 | D 0.653 | S 0.424 | C 0.377 | V 0.296 | H 0.164 | K 0.412 | W -0.21 | Y 0.429 | M 0.609 | Q 0.384 | I 0.275 | F 0.324 | L 0.249
P2: W -0.046 | D 0.699 | R -0.031 | V 0.308 | Y 0.772 | A 0.028 | L 0.297 | M 0.333 | G 0.309 | H 0.545 | E 0.734 | T 0.126 | C 0.048 | K 0.522 | Q 0.386 | F 0.425
N9: I 0.118 | L 0.045 | G -0.103 | F -0.243 | R -0.042 | K -0.149 | V 0.017 | T -0.132 | D 0.187 | E 0.288 | C -0.293 | P -0.292 | H 0.148 | S -0.004 | A -0.169 | M 0.381 | Y 0.044
R1: V 0.134 | S -0.482 | Y 0.406 | A 0.352 | G -0.505 | T -0.455 | C 0.12
Q8: E -0.019 | G -0.416 | K -0.179 | T -0.244 | D -0.094 | P -0.082 | H -0.373 | Y -0.264 | W -0.598 | V 0.122 | S 0.002 | M -0.168 | A 0.158 | F -0.441 | C -0.183
I11: A -0.344 | C -0.628 | K -0.237 | Q -0.114 | T -0.187 | N 0.091 | Y -0.46 | E 0.274 | F -0.648 | M -0.652 | R -0.472 | G -0.891 | W -0.292 | P -0.598 | D -0.072 | V -0.145
E12: A -0.257 | C -0.341
R3: K -0.089 | G 0.178 | S -0.181 | Y 0.682 | N -0.145 | Q 0.27 | M 0.15 | D 0.126 | W -0.674 | C -0.462 | A 0.182 | H -0.433 | T -0.013 | I 0.485 | E 0.24 | L -0.008 | F 0.376
